Laboratory results from patent CN113234156A.
One block for each binder: values may come before it.

Key:
[1] = target: T1, Mb重组蛋白 (recombinant myoglobin) (UniProt P02144); experiment: indirect ELISA; Mb coated 2 ug/mL; hybridoma supernatant 1/100
T1 sequence (looked up): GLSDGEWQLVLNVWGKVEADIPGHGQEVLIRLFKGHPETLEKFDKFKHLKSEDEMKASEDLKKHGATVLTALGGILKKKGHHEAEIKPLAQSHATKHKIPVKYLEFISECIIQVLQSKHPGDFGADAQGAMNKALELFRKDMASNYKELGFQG

[2] = target: T1, Mb重组蛋白 (recombinant myoglobin); experiment: indirect ELISA; Mb coated 2 ug/mL; hybridoma supernatant 1/50
[3] = target: T1, Mb重组蛋白 (recombinant myoglobin); experiment: indirect ELISA; Mb coated 2 ug/mL; hybridoma supernatant 1/400
[4] = target: T1, Mb重组蛋白 (recombinant myoglobin); experiment: indirect ELISA; Mb coated 2 ug/mL; hybridoma supernatant 1/50; remark: listed apart in the source
[5] = target: T1, Mb重组蛋白 (recombinant myoglobin); experiment: indirect ELISA; Mb coated 2 ug/mL; hybridoma supernatant 1/200

OD450 [1]: 1.63 OD
OD450 [2]: 1.7 OD
OD450 [3]: 1.27 OD
OD450 [4]: 1.69 OD
OD450 [5]: 1.46 OD
B1: 鼠单克隆抗体 9B2 (antibody, part only; not given: light chain variable domain, V domains shown, part only)
VH: QVQLQQSGAALVRPGTSVKVSCKASGYAFTNYLIEWVKQRPGQGLEWIGVINPGSGGTDYNEKFKGKATLTADKSSSTAYMQLSSLTSDDSAVYFCARSSLYGSSRMDYWGQETSVTVSS

OD450 [1]: 1.33 OD
OD450 [2]: 1.73 OD
OD450 [3]: 0.857 OD
OD450 [4]: 1.69 OD
OD450 [5]: 1.18 OD
B2: 鼠单克隆抗体 1E6 (antibody, V domains shown)
VH: EVQLQQSGAELVKPGASVKLSCTTSGFNIKDTYIHWVRQRPEQGLEWIGNIDPANGNTKYDPEFQGKATITADTSSNTAYLHLSSLTSEDTAVYYCARVDGSRDFDYWGQGTTLTVSS
VL: DIVMTQAAPSVTVTPGESVSISCRSSKSLLYSNGNTYLYWFLQRPGQSPQLLIYRMSNLASGVPDRFSGSGSGTAFTLRISRVEAEDVGVYYCMQHLEYPLTFGGGTKLELK
